Measurements from ChEMBL document CHEMBL4706520, “Development of disulfide-derived fructose-1,6-bisphosphatase (FBPase) covalent inhibitors for the treatment of type 2 diabetes” (Eur J Med Chem, 2020).

Compound: c1csc(SSc2nccs2)n1
Assay: Covalent inhibition of FBPase WT (unknown origin) assessed as Vmax measured at 45 mins
Conditions: Homo sapiens

B1: Fructose-1,6-bisphosphatase 1 (Homo sapiens), P09467 (protein)
chain: MADQAPFDTDVNTLTRFVMEEGRKARGTGELTQLLNSLCTAVKAISSAVRKAGIAHLYGIAGSTNVTGDQVKKLDVLSNDLVMNMLKSSFATCVLVSEEDKHAIIVEPEKRGKYVVCFDPLDGSSNIDCLVSVGTIFGIYRKKSTDEPSEKDALQPGRNLVAAGYALYGSATMLVLAMDCGVNCFMLDPAIGEFILVDKDVKIKKKGKIYSLNEGYARDFDPAVTEYIQRKKFPPDNSAPYGARYVGSMVADVHRTLVYGGIFLYPANKKSPNGKLRLLYECNPMAYVMEKAGGMATTGKEAVLDVIPTDIHQRAPVILGSPDDVLEFLKVYEKHSAQ
B1 showed a Vmax of 4 U/mg.
